Data from patent publication US20090036380A1, “Composition And Method For Brain Tumor Therapy” (Yeda Research and Development Co., Ltd., priority 2006, published 2009).

Key:
COS cells = experiment: Viability of COS cells expressing Karet; type: cell-based
TrkB = molecular target: T1, TrkB (Homo sapiens, UniProt Q16620); experiment: Co-immunoprecipitation of Ha Karet with TrkB in Hek cells; type: binding; conditions: co-transfected Hek cells
T1 construct: expressed in transfected cells; host or cells: Hek cells
Procedure: (§1) FIGS. 24a-d depict co IP of Ha Karet with TrkA, TrkB, TrkC, p75 from co-transfected Hek cells. Cells were co-transfected with Ha Karet or control vector and TrkA, TrkB, TrkC or p75. Cells were lysed with NP40, the HA-beads (beads conjugated to anti-HA antibody) were blocked with Hek lysate, and elution was done for 30 minutes at 37° C. Proteins from anti-HA-IP (FIGS. 24a and b) or from cell lysates without IP (FIGS. 24c and d) were subjected to Western blot analysis and the membranes were probed with anti pan trk (FIGS. 24a and c) or anti-p75 (FIGS. 24b and d) antibodies. Note the specific co-IP of Karet with TrkA (FIG. 24a, lane 1), Karet with TrkB (FIG. 24a, lane 3), Karet with TrkC (FIG. 24a, lane 5) and the lack of IP between karet and p75 (FIG. 24b, lane 7).

TrkC = molecular target: T2, TrkC (Homo sapiens, UniProt Q16288); experiment: Co-immunoprecipitation of Ha Karet with TrkC in Hek cells; type: binding; conditions: co-transfected Hek cells
T2 construct: expressed in transfected cells; host or cells: Hek cells
Procedure: as §1

EGFR = molecular target: T3, EGFR (Homo sapiens, UniProt P00533); experiment: Co-immunoprecipitation of HA-Karet with EGFR in HEK cells; type: binding; conditions: co-transfected HEK cells
T3 construct: expressed in transfected cells; host or cells: HEK cells
Procedure: FIG. 3g is a co-immunoprecipitation assay depicting co-immunoprecipitation of HA-Karet with EGFR in co-transfected HEK cells. Cells were co-transfected with Ha Karet or control vector and EGFR. Cells were lysed with NP40, the HA-beads (i.e., beads conjugated to HA antibody) were blocked with Hek lysate, and elution was done for 30 minutes at 37° C. The membranes were probed with anti FLAG antibody. Note the co-immunoprecipitation of Karet with EGFR in HEK cells.

necdin = molecular target: T4, necdin (Homo sapiens, UniProt Q99608); experiment: Co-immunoprecipitation of Karet with necdin; type: binding; conditions: necdin-PC12 cells, during 50 ng/ml NGF treatment
T4 construct: expressed in transfected cells
T4 sequence (Q99608 1-321): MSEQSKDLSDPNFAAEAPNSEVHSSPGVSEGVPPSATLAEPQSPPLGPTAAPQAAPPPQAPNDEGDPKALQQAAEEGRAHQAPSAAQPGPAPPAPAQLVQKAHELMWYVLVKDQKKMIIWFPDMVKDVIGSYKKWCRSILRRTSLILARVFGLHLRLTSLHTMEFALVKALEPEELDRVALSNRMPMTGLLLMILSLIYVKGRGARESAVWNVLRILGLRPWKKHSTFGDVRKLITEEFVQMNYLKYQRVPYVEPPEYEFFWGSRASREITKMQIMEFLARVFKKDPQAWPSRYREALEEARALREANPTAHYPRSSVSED
Procedure: Karet tagged with the HA epitope was immunoprecipitated with anti-HA antibody, the precipitated proteins were separated electrophoretically, and gel blots were incubated with anti-necdin. In control experiments the HA-Karet was substituted with vector.
FIGS. 4a-c are co-immunoprecipitation assay results depicting the influence of NGF treatment on TrkA-Karet interaction. FIG. 4a depicts that TrkA-Karet interaction occurred prior to NGF treatment and was enhanced after ligand stimulation for 10 minutes (10 m) or 2 hours (2 h). HA-Karet was electroporated into cell line PC12, and the cells were treated with 50 ng/ml NGF for the indicated time periods in order to activate p75 and TrkA. Karet tagged with the HA epitope was immunoprecipitated with anti-HA antibody, the precipitated proteins were separated electrophoretically, and gel blots were incubated with anti-TrkA antibody (RTA). FIG. 4b depicts that necdin seems to compete with TrkA for binding to Karet. myc-Karet was electroporated into necdin stable cell line, and the cells were treated with 50 ng/ml NGF for the indicated time periods. Karet tagged with the myc epitope was immunoprecipitated with anti-myc antibody, the precipitated proteins were separated electrophoretically, and gel blots were incubated with anti-TrkA antibody (RTA). […] A blot from the same experiment was stripped and re-incubated with anti-necdin antibody. […]

Substance: Karet: full-length mouse Karet protein (SEQ ID NO:1), PTB domain protein, expressed from pcDNA3 with HA tag
- cell viability (COS cells): no reduction in cell viability
- co-immunoprecipitation with TrkB (TrkB): co-immunoprecipitated
- co-immunoprecipitation with TrkC (TrkC): co-immunoprecipitated
- co-immunoprecipitation with EGFR (EGFR): co-immunoprecipitation
- interaction with necdin (necdin): robust and constant
